Blank lines part the entries; values can stand above or below the substance they belong to.
Tests used:
[1] = molecular target: … (SEQ ID NO: 26) on HLA-A2 of pulsed T2 cells; assay: cell-based or functional assay
[2] = molecular target: NY-ESO-1 157-165 peptide … (SEQ ID NO: 2) on HLA-A2 of peptide-pulsed cells; assay: cell-based or functional assay
[3] = molecular target: … (SEQ ID NO: 24) on HLA-A2 of pulsed T2 cells; assay: cell-based or functional assay
[4] = molecular target: … (SEQ ID NO: 27) on HLA-A2 of pulsed T2 cells; assay: cell-based or functional assay
[5] = molecular target: … (SEQ ID NO: 25) on HLA-A2 of pulsed T2 cells; assay: cell-based or functional assay
[6] = molecular target: … (SEQ ID NO: 23) on HLA-A2 of pulsed T2 cells; assay: cell-based or functional assay
[7] = molecular target: … (SEQ ID NO: 28) on HLA-A2 of pulsed T2 cells; assay: cell-based or functional assay
[8] = molecular target: NY-ESO-1 peptide on HLA-A*02:01 (human); assay: IFN-gamma ELISA; PBL transduced with 1G4-LY, after one OKT3 stimulation, peptide-pulsed T2 cells; full-length, on cells

IFN-γ (pg/ml); Donor K PBL, T2 + 1 ng/µL peptide [1]: 884 pg/mL | IFN-γ (pg/ml); Donor K PBL, T2 + 10 ng/µL peptide [1]: 1110 pg/mL | IFN-γ (pg/ml); Donor L PBL, T2 + 1 ng/µL peptide [1]: 220 pg/mL | IFN-γ (pg/ml); Donor L PBL, T2 + 10 ng/µL peptide [1]: 297 pg/mL | IFN-γ (pg/ml); Donor H after expanding numbers of cells, T2 + 0.1 ng/µl peptide [2]: 89 pg/mL | IFN-γ (pg/ml); Donor H after expanding numbers of cells, T2 + 1 ng/µl peptide [2]: 512 pg/mL | IFN-γ (pg/ml); Donor H after expanding numbers of cells, T2 + 10 ng/µl peptide [2]: 2970 pg/mL | IFN-γ (pg/ml); Donor H after expanding numbers of cells, T2 + 100 ng/µl peptide [2]: 4340 pg/mL | IFN-γ (pg/ml); Donor H after stimulation with OKT3, T2 + 0.1 ng/µl peptide [2]: 1400 pg/mL | IFN-γ (pg/ml); Donor H after stimulation with OKT3, T2 + 1 ng/µl peptide [2]: 1710 pg/mL | IFN-γ (pg/ml); Donor H after stimulation with OKT3, T2 + 10 ng/µl peptide [2]: 3020 pg/mL | IFN-γ (pg/ml); Donor H after stimulation with OKT3, T2 + 100 ng/µl peptide [2]: 3780 pg/mL | IFN-γ (pg/ml); Donor K PBL, T2 + 1 ng/µL peptide [2]: 678 pg/mL | IFN-γ (pg/ml); Donor K PBL, T2 + 10 ng/µL peptide [2]: 3760 pg/mL | IFN-γ (pg/ml); Donor L PBL, T2 + 1 ng/µL peptide [2]: 184 pg/mL | IFN-γ (pg/ml); Donor L PBL, T2 + 10 ng/µL peptide [2]: 754 pg/mL | IFN-γ (pg/ml); Patient 1 PBL S1D7, T2 + 0.1 ng/ml peptide [2]: 0 pg/mL | IFN-γ (pg/ml); Patient 1 PBL S1D7, T2 + 1 ng/ml peptide [2]: 677 pg/mL | IFN-γ (pg/ml); Patient 1 PBL S1D7, T2 + 10 ng/ml peptide [2]: 1090 pg/mL | IFN-γ (pg/ml); Patient 1 PBL S1D7, T2 + 100 ng/ml peptide [2]: 1600 pg/mL | IFN-γ (pg/ml); Patient 1 PBL S1D7, T2 + 1 µg/ml peptide [2]: 2170 pg/mL | IFN-γ (pg/ml); Patient 1 expanded PBL S2D9, T2 + 0.1 ng/ml peptide [2]: 1330 pg/mL | IFN-γ (pg/ml); Patient 1 expanded PBL S2D9, T2 + 1 ng/ml peptide [2]: 7260 pg/mL | IFN-γ (pg/ml); Patient 1 expanded PBL S2D9, T2 + 10 ng/ml peptide [2]: 16200 pg/mL | IFN-γ (pg/ml); Patient 1 expanded PBL S2D9, T2 + 100 ng/ml peptide [2]: 21600 pg/mL | IFN-γ (pg/ml); Patient 1 expanded PBL S2D9, T2 + 1 µg/ml peptide [2]: 30600 pg/mL | IFN-γ (pg/ml); Patient 2 PBL S1D7, T2 + 0.1 ng/ml peptide [2]: 40 pg/mL | IFN-γ (pg/ml); Patient 2 PBL S1D7, T2 + 1 ng/ml peptide [2]: 291 pg/mL | IFN-γ (pg/ml); Patient 2 PBL S1D7, T2 + 10 ng/ml peptide [2]: 879 pg/mL | IFN-γ (pg/ml); Patient 2 PBL S1D7, T2 + 100 ng/ml peptide [2]: 1280 pg/mL | IFN-γ (pg/ml); Patient 2 PBL S1D7, T2 + 1 µg/ml peptide [2]: 2440 pg/mL | IFN-γ (pg/ml); Patient 2 expanded PBL S2D9, T2 + 0.1 ng/ml peptide [2]: 662 pg/mL | IFN-γ (pg/ml); Patient 2 expanded PBL S2D9, T2 + 1 ng/ml peptide [2]: 2500 pg/mL | IFN-γ (pg/ml); Patient 2 expanded PBL S2D9, T2 + 10 ng/ml peptide [2]: 6800 pg/mL | IFN-γ (pg/ml); Patient 2 expanded PBL S2D9, T2 + 100 ng/ml peptide [2]: 10600 pg/mL | IFN-γ (pg/ml); Patient 2 expanded PBL S2D9, T2 + 1 µg/ml peptide [2]: 19400 pg/mL | lowest peptide concentration on T2 cells that was recognized (IFN-γ) [2]: 0.1 ng/mL | IFN-γ (pg/ml); Donor K PBL, T2 + 1 ng/µL peptide [3]: 0 pg/mL | IFN-γ (pg/ml); Donor K PBL, T2 + 10 ng/µL peptide [3]: 0 pg/mL | IFN-γ (pg/ml); Donor L PBL, T2 + 1 ng/µL peptide [3]: 225 pg/mL | IFN-γ (pg/ml); Donor L PBL, T2 + 10 ng/µL peptide [3]: 185 pg/mL | IFN-γ (pg/ml); Donor K PBL, T2 + 1 ng/µL peptide [4]: 457 pg/mL | IFN-γ (pg/ml); Donor K PBL, T2 + 10 ng/µL peptide [4]: 5670 pg/mL | IFN-γ (pg/ml); Donor L PBL, T2 + 1 ng/µL peptide [4]: 208 pg/mL | IFN-γ (pg/ml); Donor L PBL, T2 + 10 ng/µL peptide [4]: 1030 pg/mL | IFN-γ (pg/ml); Donor K PBL, T2 + 1 ng/µL peptide [5]: 0 pg/mL | IFN-γ (pg/ml); Donor K PBL, T2 + 10 ng/µL peptide [5]: 0 pg/mL | IFN-γ (pg/ml); Donor L PBL, T2 + 1 ng/µL peptide [5]: 148 pg/mL | IFN-γ (pg/ml); Donor L PBL, T2 + 10 ng/µL peptide [5]: 294 pg/mL | IFN-γ (pg/ml); Donor K PBL, T2 + 1 ng/µL peptide [6]: 1780 pg/mL | IFN-γ (pg/ml); Donor K PBL, T2 + 10 ng/µL peptide [6]: 3270 pg/mL | IFN-γ (pg/ml); Donor L PBL, T2 + 1 ng/µL peptide [6]: 370 pg/mL | IFN-γ (pg/ml); Donor L PBL, T2 + 10 ng/µL peptide [6]: 1380 pg/mL | IFN-γ (pg/ml); Donor K PBL, T2 + 1 ng/µL peptide [7]: 0 pg/mL | IFN-γ (pg/ml); Donor K PBL, T2 + 10 ng/µL peptide [7]: 0 pg/mL | IFN-γ (pg/ml); Donor L PBL, T2 + 1 ng/µL peptide [7]: 82 pg/mL | IFN-γ (pg/ml); Donor L PBL, T2 + 10 ng/µL peptide [7]: 97 pg/mL | lowest peptide concentration recognised [8]: < 0.1 ng/mL
Substance: 1G4-LY TCR

IFN-γ (pg/ml); Patient 1 PBL S1D7, T2 + 0.1 ng/ml peptide [2]: 99 pg/mL | IFN-γ (pg/ml); Patient 1 PBL S1D7, T2 + 1 ng/ml peptide [2]: 851 pg/mL | IFN-γ (pg/ml); Patient 1 PBL S1D7, T2 + 10 ng/ml peptide [2]: 1520 pg/mL | IFN-γ (pg/ml); Patient 1 PBL S1D7, T2 + 100 ng/ml peptide [2]: 2480 pg/mL | IFN-γ (pg/ml); Patient 1 PBL S1D7, T2 + 1 µg/ml peptide [2]: 2450 pg/mL | IFN-γ (pg/ml); Patient 1 expanded PBL S2D9, T2 + 0.1 ng/ml peptide [2]: 1280 pg/mL | IFN-γ (pg/ml); Patient 1 expanded PBL S2D9, T2 + 1 ng/ml peptide [2]: 6990 pg/mL | IFN-γ (pg/ml); Patient 1 expanded PBL S2D9, T2 + 10 ng/ml peptide [2]: 13500 pg/mL | IFN-γ (pg/ml); Patient 1 expanded PBL S2D9, T2 + 100 ng/ml peptide [2]: 19400 pg/mL | IFN-γ (pg/ml); Patient 1 expanded PBL S2D9, T2 + 1 µg/ml peptide [2]: 26400 pg/mL | IFN-γ (pg/ml); Patient 2 PBL S1D7, T2 + 0.1 ng/ml peptide [2]: 41 pg/mL | IFN-γ (pg/ml); Patient 2 PBL S1D7, T2 + 1 ng/ml peptide [2]: 397 pg/mL | IFN-γ (pg/ml); Patient 2 PBL S1D7, T2 + 10 ng/ml peptide [2]: 860 pg/mL | IFN-γ (pg/ml); Patient 2 PBL S1D7, T2 + 100 ng/ml peptide [2]: 1100 pg/mL | IFN-γ (pg/ml); Patient 2 PBL S1D7, T2 + 1 µg/ml peptide [2]: 1960 pg/mL | IFN-γ (pg/ml); Patient 2 expanded PBL S2D9, T2 + 0.1 ng/ml peptide [2]: 747 pg/mL | IFN-γ (pg/ml); Patient 2 expanded PBL S2D9, T2 + 1 ng/ml peptide [2]: 3550 pg/mL | IFN-γ (pg/ml); Patient 2 expanded PBL S2D9, T2 + 10 ng/ml peptide [2]: 7350 pg/mL | IFN-γ (pg/ml); Patient 2 expanded PBL S2D9, T2 + 100 ng/ml peptide [2]: 12700 pg/mL | IFN-γ (pg/ml); Patient 2 expanded PBL S2D9, T2 + 1 µg/ml peptide [2]: 19500 pg/mL
Substance: wild-type human anti-NY-ESO-1 TCR (1G4)
